Experiment [1] addresses human αvβ3 protein (CHEMICON), soluble (human) (UniProt P06756). Briefly: cell-based or functional assay.
In experiment [2] the target is αvβ3 integrin on C-PAE cells (bovine) (UniProt P80746). The experiment can be described thus: C-PAE attachment to Tum-2-coated plates; the blocked ligand is Tum-2.
Experiment [3] has as its target αvβ3 integrin on HUVEC cells (human) (UniProt P06756). Briefly: HUVEC binding to vitronectin-coated plates; 10 µg/ml antibody; the blocked ligand is vitronectin.
The target is the same in experiment [4]. The experiment can be described thus: HUVEC attachment to Tumstatin-coated plates; αvβ3 antibody used TOGETHER with β1 antibody; the blocked ligand is Tumstatin.
Experiment [5] shares this target. The experiment can be described thus: HUVEC attachment to Tumstatin-coated plates (10 µg/ml); 10 µg/ml antibody, against control IgG; the blocked ligand is Tumstatin.
Experiment [6] has as its target αvβ3 integrin on C-PAE cells (bovine) (UniProt P80746). Briefly: C-PAE attachment to Tum-1-coated plates; the blocked ligand is Tum-1.
Experiment [7] has as its target αvβ3 integrin on HUVEC cells (human) (UniProt P06756). Briefly: HUVEC attachment to plates coated with E. coli-expressed Tumstatin-44-131 (10 µg/ml); 10 µg/ml antibody; the blocked ligand is Tumstatin-44-131.
Experiment [8] addresses αvβ3 integrin on C-PAE cells (bovine) (UniProt P80746). The experiment can be described thus: C-PAE attachment to Tum-4-coated plates; the blocked ligand is Tum-4.
Experiment [9] concerns the target αvβ3 integrin on HUVEC cells (human) (UniProt P06756). The experiment can be described thus: HUVEC adhesion to collagen Type IV-coated wells (10 µg/ml); 10 µg/ml antibody; the blocked ligand is type IV collagen.
The target in experiment [10] is integrin β1 subunit on HUVEC cells (human) (UniProt P05556). Briefly: HUVEC attachment to Tumstatin-coated plates (10 µg/ml); 10 µg/ml antibody, against control IgG; the blocked ligand is Tumstatin.
integrin β1 subunit on HUVEC cells (human), sequence (P05556 21-798): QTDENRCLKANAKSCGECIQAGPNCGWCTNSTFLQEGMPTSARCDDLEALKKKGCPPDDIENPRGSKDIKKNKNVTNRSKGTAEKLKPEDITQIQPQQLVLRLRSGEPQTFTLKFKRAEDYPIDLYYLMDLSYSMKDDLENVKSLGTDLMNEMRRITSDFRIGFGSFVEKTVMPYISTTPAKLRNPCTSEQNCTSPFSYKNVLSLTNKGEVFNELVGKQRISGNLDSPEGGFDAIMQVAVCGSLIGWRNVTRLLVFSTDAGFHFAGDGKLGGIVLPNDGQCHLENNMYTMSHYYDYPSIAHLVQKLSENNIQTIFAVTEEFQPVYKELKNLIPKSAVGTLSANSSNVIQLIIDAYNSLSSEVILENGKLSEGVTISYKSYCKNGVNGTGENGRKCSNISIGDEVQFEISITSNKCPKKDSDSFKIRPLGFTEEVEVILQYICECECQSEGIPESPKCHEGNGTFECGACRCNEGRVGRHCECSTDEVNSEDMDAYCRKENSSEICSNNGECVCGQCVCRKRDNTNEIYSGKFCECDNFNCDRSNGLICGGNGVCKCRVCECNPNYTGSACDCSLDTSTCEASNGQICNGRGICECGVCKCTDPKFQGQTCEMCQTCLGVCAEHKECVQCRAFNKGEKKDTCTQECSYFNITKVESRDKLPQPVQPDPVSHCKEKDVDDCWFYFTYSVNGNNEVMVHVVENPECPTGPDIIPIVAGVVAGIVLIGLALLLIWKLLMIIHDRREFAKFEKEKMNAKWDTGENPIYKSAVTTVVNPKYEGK
Experiment [11] has the same target. The experiment can be described thus: HUVEC adhesion to Arresten-coated wells (10 µg/ml); cells pre-mixed with 10 µg/ml antibody; the blocked ligand is Arresten.
Experiment [12] shares this target. The experiment can be described thus: HUVEC attachment to plates coated with E. coli-expressed Tumstatin-44-131 (10 µg/ml); 10 µg/ml antibody; the blocked ligand is Tumstatin-44-131.
Experiment [13] has the same target. The experiment can be described thus: HUVEC binding to type IV collagen-coated plates; 10 µg/ml antibody, against control IgG; the blocked ligand is type IV collagen.
Experiment [14] shares this target. The experiment can be described thus: HUVEC adhesion to collagen Type IV-coated wells (10 µg/ml); 10 µg/ml antibody; the blocked ligand is type IV collagen.

αvβ3 integrin on HUVEC cells (human), sequence (P06756 31-1048, chain 1 of 2): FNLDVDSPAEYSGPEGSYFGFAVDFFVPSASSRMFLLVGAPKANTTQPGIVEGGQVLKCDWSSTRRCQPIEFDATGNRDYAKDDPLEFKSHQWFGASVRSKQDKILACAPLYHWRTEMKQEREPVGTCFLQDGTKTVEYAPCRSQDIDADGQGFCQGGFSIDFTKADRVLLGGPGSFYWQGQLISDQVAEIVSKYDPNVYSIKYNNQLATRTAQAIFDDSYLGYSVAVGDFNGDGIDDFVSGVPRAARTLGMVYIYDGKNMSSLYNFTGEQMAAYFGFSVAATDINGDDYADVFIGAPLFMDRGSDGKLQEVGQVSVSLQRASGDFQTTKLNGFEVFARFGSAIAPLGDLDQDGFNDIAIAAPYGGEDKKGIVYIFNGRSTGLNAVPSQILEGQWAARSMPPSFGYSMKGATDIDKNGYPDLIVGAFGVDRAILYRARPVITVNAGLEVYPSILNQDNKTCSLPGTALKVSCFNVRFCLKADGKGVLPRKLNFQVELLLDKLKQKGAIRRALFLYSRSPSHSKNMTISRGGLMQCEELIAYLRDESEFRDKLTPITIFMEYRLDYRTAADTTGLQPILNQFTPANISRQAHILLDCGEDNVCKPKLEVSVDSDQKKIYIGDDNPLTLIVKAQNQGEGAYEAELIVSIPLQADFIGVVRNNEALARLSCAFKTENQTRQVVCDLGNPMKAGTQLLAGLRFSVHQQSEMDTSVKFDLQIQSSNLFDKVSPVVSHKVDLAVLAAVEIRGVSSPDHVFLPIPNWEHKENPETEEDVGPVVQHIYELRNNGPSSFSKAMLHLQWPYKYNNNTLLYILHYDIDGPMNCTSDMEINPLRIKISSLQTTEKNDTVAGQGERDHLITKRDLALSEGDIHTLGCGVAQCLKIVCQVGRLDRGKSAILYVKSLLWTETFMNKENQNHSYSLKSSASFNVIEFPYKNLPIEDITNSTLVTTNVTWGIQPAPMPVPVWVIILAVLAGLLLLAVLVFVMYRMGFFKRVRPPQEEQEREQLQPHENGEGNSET
αvβ3 integrin on HUVEC cells (human), sequence (P05106 27-788, chain 2 of 2, further chain): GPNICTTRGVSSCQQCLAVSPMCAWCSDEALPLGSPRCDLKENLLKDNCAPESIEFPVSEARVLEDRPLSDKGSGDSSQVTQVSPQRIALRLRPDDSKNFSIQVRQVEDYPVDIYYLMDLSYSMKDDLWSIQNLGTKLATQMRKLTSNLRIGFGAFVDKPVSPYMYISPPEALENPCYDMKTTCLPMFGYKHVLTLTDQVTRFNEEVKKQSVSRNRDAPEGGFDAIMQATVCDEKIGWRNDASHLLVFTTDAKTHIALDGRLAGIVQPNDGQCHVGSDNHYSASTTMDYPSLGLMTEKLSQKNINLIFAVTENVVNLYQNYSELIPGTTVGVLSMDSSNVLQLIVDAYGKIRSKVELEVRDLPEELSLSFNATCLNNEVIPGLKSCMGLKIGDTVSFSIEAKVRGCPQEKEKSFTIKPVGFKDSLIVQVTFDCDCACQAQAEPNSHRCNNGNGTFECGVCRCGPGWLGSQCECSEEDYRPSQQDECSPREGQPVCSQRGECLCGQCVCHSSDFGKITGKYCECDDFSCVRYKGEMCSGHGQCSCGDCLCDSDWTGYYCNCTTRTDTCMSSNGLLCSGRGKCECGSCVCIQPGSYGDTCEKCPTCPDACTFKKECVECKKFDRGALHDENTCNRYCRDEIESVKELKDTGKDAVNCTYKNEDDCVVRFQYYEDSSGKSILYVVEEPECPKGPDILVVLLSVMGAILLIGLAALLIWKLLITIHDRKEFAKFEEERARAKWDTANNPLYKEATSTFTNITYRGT
αvβ3 integrin on C-PAE cells (bovine), sequence (P80746 31-1048): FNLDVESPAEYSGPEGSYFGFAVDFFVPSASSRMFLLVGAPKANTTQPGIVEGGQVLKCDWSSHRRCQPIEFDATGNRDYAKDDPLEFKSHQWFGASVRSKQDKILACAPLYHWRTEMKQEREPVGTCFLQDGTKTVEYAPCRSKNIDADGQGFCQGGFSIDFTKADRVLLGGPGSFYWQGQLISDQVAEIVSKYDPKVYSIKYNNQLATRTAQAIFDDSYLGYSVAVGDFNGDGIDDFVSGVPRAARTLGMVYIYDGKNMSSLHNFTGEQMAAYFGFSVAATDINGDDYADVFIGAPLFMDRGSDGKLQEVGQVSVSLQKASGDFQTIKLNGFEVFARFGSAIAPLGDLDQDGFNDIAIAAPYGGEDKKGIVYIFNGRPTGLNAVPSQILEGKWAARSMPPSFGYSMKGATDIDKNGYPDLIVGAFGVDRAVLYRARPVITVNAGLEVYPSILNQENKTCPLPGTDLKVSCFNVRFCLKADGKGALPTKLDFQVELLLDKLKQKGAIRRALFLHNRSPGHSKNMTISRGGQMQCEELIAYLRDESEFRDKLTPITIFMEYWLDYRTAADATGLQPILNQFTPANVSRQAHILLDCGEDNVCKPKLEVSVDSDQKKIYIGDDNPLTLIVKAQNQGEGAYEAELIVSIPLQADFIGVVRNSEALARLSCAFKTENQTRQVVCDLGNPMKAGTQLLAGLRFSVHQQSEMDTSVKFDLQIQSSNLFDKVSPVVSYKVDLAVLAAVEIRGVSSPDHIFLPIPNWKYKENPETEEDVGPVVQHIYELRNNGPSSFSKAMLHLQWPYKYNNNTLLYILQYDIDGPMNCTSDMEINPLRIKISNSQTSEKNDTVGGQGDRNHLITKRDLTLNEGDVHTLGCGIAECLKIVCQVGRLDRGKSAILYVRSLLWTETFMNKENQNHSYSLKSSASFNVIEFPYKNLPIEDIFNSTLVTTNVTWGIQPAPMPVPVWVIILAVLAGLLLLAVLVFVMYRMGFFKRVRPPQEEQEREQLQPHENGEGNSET

Turning to “Tum-2 (from UniProt Q01955 1427-1558) (ligand)”, in experiment [1], the recovery of Tum-2's anti-proliferative effect on C-PAE cells after pre-incubation with αvβ3 protein (methylene blue) was found to be 74.1%.
In [1], “Tum-4 (from UniProt Q01955 1607-1670) (ligand)” showed a recovery of the Tum-4-induced anti-proliferative effect on WM-164 melanoma cells after pre-incubation with αvβ3 protein (methylene blue) of 76.7%.
For “monoclonal antibody to αvβ3 integrin (clone LM609, CHEMICON)”, the % inhibition of cell attachment in experiment [2] was determined as 69.8%; in [4], 91%; in experiment [5] it was 80%; in [6], 55.9%; in [7] it was 47.1%; in experiment [8] it was 62.6%. This substance gave a % inhibition of cell binding in experiment [3] of 61%. The substance further showed a % inhibition of cell adhesion in [9] of 15%.
For “mouse monoclonal antibody to the human β1 integrin subunit (clone P4C10)”, the figures for the % inhibition of cell attachment in experiment [10] and in experiment [12] were 54% and 47.5%, respectively. Further, the % inhibition of cell adhesion in experiment [11] is 70%; in [14], 40%. Besides, the % inhibition of cell binding in experiment [13] was found to be 53%.

Values taken from patent US20090054344A1.
